Laboratory results published in paper PMC6363758, “Zinc regulates ERp44-dependent protein quality control in the early secretory pathway” (Nature Communications, 2019).

Tests used:
[1] = target: T1, Ero1α Cys104/Cys131Cys166Ala mutant (recombinant) (UniProt Q96HE7 24-468, Cys104/Cys131Cys166Ala | Cys104/Cys131Cys166Ala | Cys104/Cys131Cys166Ala); experiment: ITC; 200 µM ERp44 injected into 15 µM Ero1α and 15 µM ZnCl2; 20 mM BisTris-HCl pH 6.2, 150 mM NaCl, 283 K; details: both partners purified
T1 construct: Ero1α with Cys104, Cys131 and Cys166 replaced by Ala; used in all the in vitro experiments
T1 sequence (looked up): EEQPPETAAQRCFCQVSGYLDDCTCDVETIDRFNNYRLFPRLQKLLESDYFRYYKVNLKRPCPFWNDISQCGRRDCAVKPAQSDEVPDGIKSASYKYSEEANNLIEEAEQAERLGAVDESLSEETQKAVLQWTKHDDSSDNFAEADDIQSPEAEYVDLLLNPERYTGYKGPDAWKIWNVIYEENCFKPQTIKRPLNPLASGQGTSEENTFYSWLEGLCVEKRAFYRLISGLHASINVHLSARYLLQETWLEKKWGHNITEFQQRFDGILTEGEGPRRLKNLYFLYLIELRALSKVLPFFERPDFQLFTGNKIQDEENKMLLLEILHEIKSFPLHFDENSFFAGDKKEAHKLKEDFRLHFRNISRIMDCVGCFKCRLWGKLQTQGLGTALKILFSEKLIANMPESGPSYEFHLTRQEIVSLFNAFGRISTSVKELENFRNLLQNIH

[2] = target: T1, Ero1α Cys104/Cys131Cys166Ala mutant …; experiment: ITC; 420 µM Ero1α injected into 30 µM ERp44 WT, no Zn2+; 20 mM BisTris-HCl pH 6.2, 150 mM NaCl, 283 K; details: both partners purified

Kd [1]: 220 nM | Kd [2]: 1310 nM
B1: ERp44 WT (recombinant) (natural protein)
chain: EITSLDTENIDEILNNADVALVNFYADWCRFSQMLHPIFEEASDVIKEEFPNENQVVFARVDCDQHSDIAQRYRISKYPTLKLFRNGMMMKREYRGQRSVKALADYIRQQKSDPIQEIRDLAEITTLDRSKRNIIGYFEQKDSDNYRVFERVANILHDDCAFLSAFGDVSKPERYSGDNIIYKPPGHSAPDMVYLGAMTNFDVTYNWIQDKCVPLVREITFENGEELTEEGLPFLILFHMKEDTESLEIFQNEVARQLISEKGTINFLHADCDKFRHPLLHIQKTPADCPVIAIDSFRHMYVFGDFKDVLIPGKLKQFVFDLHSGKLHREFHHGPDPTDTAPGEQAQDVASSPPESSFQKLAPSEYRYTLLRDRDEL
notes: ERp44, chaperone of the PDI family; Probably the mature protein without its signal peptide (surmise)
